The results in this text go back to patent US20110028686A1 (published 2011).

In assay [1] the target is T1, HisKIX (UniProt P45481 586-672).
T1 construct: range 586-672; the residue numbers fit mouse CBP; also called His-tagged CBP KIX domain; CBP KIX; not shown: amino-terminal hexahistidine tag and linker of pET15b
The experiment in a line: FP, fluorescein-labelled peptide titrated with HisKIX, 25 C.

The target in assay [2] is T1, HisKIX. Kind of assay: FP with HisKIX; end of the range assigned by Table 1.
The target in assay [3] is T1, HisKIX. The experiment in a line: FP with HisKIX.

Square brackets hold non-standard residues; d marks the D form. Ends that are not written are not given here. * marks the point of attachment. Fluorescein(5-NHCOCH2) = O=C(C*)Nc1ccc2c(c1)C(=O)OC21c2ccc(O)cc2Oc2cc(O)ccc21; pS = N[C@@H](COP(=O)(O)O)C(=O)O Some results are limits rather than exact numbers.

T1 sequence (P45481 586-672): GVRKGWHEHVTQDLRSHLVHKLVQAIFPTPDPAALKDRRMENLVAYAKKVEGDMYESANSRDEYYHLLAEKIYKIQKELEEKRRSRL

B1: KID-B^P (peptide)
peptide: RRP[pS]YRKILNDLSSDAPGVC(acetamidofluorescein)-NH2
notes: also called KID-B (phosphorylated); CREB KID residues 130-148
Turning to B1, in the assay with HisKIX [1], the affinity, expressed as Kd, was 51.6 µM.

For GASDMTYWGDDAPVRRLSFFYILLDLYLDAPGVC(acetamidofluorescein)-NH2 (designed binder, also called PPKID1 (unphosphorylated)) [PPKID1^U], the dissociation constant (Kd) (commonly the concentration at which binding is half-saturated) with HisKIX [1] stood at 24.1 µM. Besides, in the assay with HisKIX [2], the “fold change in affinity against peptide C^U” value lay in the range of 1 to 3 fold and the “ΔΔG relative to peptide C^U” value is 0.1 kcal/mol.

Turning to GASDMTYWGDDAPVRRL[pS]FFYILLDLYLDAPGVC(Fluorescein(5-NHCOCH2))-NH2 (designed binder, also called PPKID1 (phosphorylated)) [PPKID1^P], the Kd with HisKIX [1] is 0.591 µM. In the assay with HisKIX [2], the “fold enhancement in affinity upon phosphorylation” value fell in the range of 6 to 41 fold, the “fold higher affinity than KID-B^P” value lay within 43 to 87 fold and the ΔΔG upon phosphorylation is -2.2 kcal/mol.

B2: PPKID5^P (designed binder)
peptide: GLSWPTYHGDDAPVRRL[pS]FFYILLDLYLDAPGVC(Fluorescein(5-NHCOCH2))-NH2
modifications: N-terminus assumed
SMILES: CC[C@H](C)[C@H](NC(=O)[C@H](Cc1ccc(O)cc1)NC(=O)[C@H](Cc1ccccc1)NC(=O)[C@H](Cc1ccccc1)NC(=O)[C@H](COP(=O)(O)O)NC(=O)[C@H](CC(C)C)NC(=O)[C@H](CCCNC(=N)N)NC(=O)[C@H](CCCNC(=N)N)NC(=O)[C@@H](NC(=O)[C@@H]1CCCN1C(=O)[C@H](C)NC(=O)[C@H](CC(=O)O)NC(=O)[C@H](CC(=O)O)NC(=O)CNC(=O)[C@H](Cc1c[nH]cn1)NC(=O)[C@H](Cc1ccc(O)cc1)NC(=O)[C@@H](NC(=O)[C@@H]1CCCN1C(=O)[C@H](Cc1c[nH]c2ccccc12)NC(=O)[C@H](CO)NC(=O)[C@H](CC(C)C)NC(=O)CN)[C@@H](C)O)C(C)C)C(=O)N[C@@H](CC(C)C)C(=O)N[C@@H](CC(C)C)C(=O)N[C@@H](CC(=O)O)C(=O)N[C@@H](CC(C)C)C(=O)N[C@@H](Cc1ccc(O)cc1)C(=O)N[C@@H](CC(C)C)C(=O)N[C@@H](CC(=O)O)C(=O)N[C@@H](C)C(=O)N1CCC[C@H]1C(=O)NCC(=O)N[C@H](C(=O)N[C@@H](CSCC(=O)Nc1ccc2c(c1)C(=O)OC21c2ccc(O)cc2Oc2cc(O)ccc21)C(N)=O)C(C)C
notes: also called PPKID5 (phosphorylated)
In the assay with HisKIX [1], B2 returned a Kd of 0.534 µM.

B3: PPKID6 S18E (designed binder)
peptide: GISWPTFEGDDAPVRRLEFFYILLDLYLDAPGVC(Fluorescein(5-NHCOCH2))-NH2
modifications: N-terminus assumed
SMILES: CC[C@H](C)[C@H](NC(=O)CN)C(=O)N[C@@H](CO)C(=O)N[C@@H](Cc1c[nH]c2ccccc12)C(=O)N1CCC[C@H]1C(=O)N[C@H](C(=O)N[C@@H](Cc1ccccc1)C(=O)N[C@@H](CCC(=O)O)C(=O)NCC(=O)N[C@@H](CC(=O)O)C(=O)N[C@@H](CC(=O)O)C(=O)N[C@@H](C)C(=O)N1CCC[C@H]1C(=O)N[C@H](C(=O)N[C@@H](CCCNC(=N)N)C(=O)N[C@@H](CCCNC(=N)N)C(=O)N[C@@H](CC(C)C)C(=O)N[C@@H](CCC(=O)O)C(=O)N[C@@H](Cc1ccccc1)C(=O)N[C@@H](Cc1ccccc1)C(=O)N[C@@H](Cc1ccc(O)cc1)C(=O)N[C@H](C(=O)N[C@@H](CC(C)C)C(=O)N[C@@H](CC(C)C)C(=O)N[C@@H](CC(=O)O)C(=O)N[C@@H](CC(C)C)C(=O)N[C@@H](Cc1ccc(O)cc1)C(=O)N[C@@H](CC(C)C)C(=O)N[C@@H](CC(=O)O)C(=O)N[C@@H](C)C(=O)N1CCC[C@H]1C(=O)NCC(=O)N[C@H](C(=O)N[C@@H](CSCC(=O)Nc1ccc2c(c1)C(=O)OC21c2ccc(O)cc2Oc2cc(O)ccc21)C(N)=O)C(C)C)[C@@H](C)CC)C(C)C)[C@@H](C)O
For the molecule B3, in the assay with HisKIX [3], the “fold decrease in affinity against PPKID6^U” value was found to be 7 fold and the “ΔΔG relative to PPKID6^U” value stood at 1.2 kcal/mol. Besides, the dissociation constant (Kd) with HisKIX [1] is 10.9 µM.

B4: PPKID4^U (designed binder)
peptide: GPSQPTYPGDDAPVRRLSFFYILLDLYLDAPGVC(Fluorescein(5-NHCOCH2))-NH2
modifications: N-terminus assumed
SMILES: CC[C@H](C)[C@H](NC(=O)[C@H](Cc1ccc(O)cc1)NC(=O)[C@H](Cc1ccccc1)NC(=O)[C@H](Cc1ccccc1)NC(=O)[C@H](CO)NC(=O)[C@H](CC(C)C)NC(=O)[C@H](CCCNC(=N)N)NC(=O)[C@H](CCCNC(=N)N)NC(=O)[C@@H](NC(=O)[C@@H]1CCCN1C(=O)[C@H](C)NC(=O)[C@H](CC(=O)O)NC(=O)[C@H](CC(=O)O)NC(=O)CNC(=O)[C@@H]1CCCN1C(=O)[C@H](Cc1ccc(O)cc1)NC(=O)[C@@H](NC(=O)[C@@H]1CCCN1C(=O)[C@H](CCC(N)=O)NC(=O)[C@H](CO)NC(=O)[C@@H]1CCCN1C(=O)CN)[C@@H](C)O)C(C)C)C(=O)N[C@@H](CC(C)C)C(=O)N[C@@H](CC(C)C)C(=O)N[C@@H](CC(=O)O)C(=O)N[C@@H](CC(C)C)C(=O)N[C@@H](Cc1ccc(O)cc1)C(=O)N[C@@H](CC(C)C)C(=O)N[C@@H](CC(=O)O)C(=O)N[C@@H](C)C(=O)N1CCC[C@H]1C(=O)NCC(=O)N[C@H](C(=O)N[C@@H](CSCC(=O)Nc1ccc2c(c1)C(=O)OC21c2ccc(O)cc2Oc2cc(O)ccc21)C(N)=O)C(C)C
notes: also called PPKID4 (unphosphorylated)
Take B4: in the assay with HisKIX [1], the Kd amounted to 12.1 µM.

B5: PPKID8^U (designed binder)
peptide: GLSWKTDPGDDAPVRRLSFFYILLDLYLDAPGVC(Fluorescein(5-NHCOCH2))-NH2
modifications: N-terminus assumed
SMILES: CC[C@H](C)[C@H](NC(=O)[C@H](Cc1ccc(O)cc1)NC(=O)[C@H](Cc1ccccc1)NC(=O)[C@H](Cc1ccccc1)NC(=O)[C@H](CO)NC(=O)[C@H](CC(C)C)NC(=O)[C@H](CCCNC(=N)N)NC(=O)[C@H](CCCNC(=N)N)NC(=O)[C@@H](NC(=O)[C@@H]1CCCN1C(=O)[C@H](C)NC(=O)[C@H](CC(=O)O)NC(=O)[C@H](CC(=O)O)NC(=O)CNC(=O)[C@@H]1CCCN1C(=O)[C@H](CC(=O)O)NC(=O)[C@@H](NC(=O)[C@H](CCCCN)NC(=O)[C@H](Cc1c[nH]c2ccccc12)NC(=O)[C@H](CO)NC(=O)[C@H](CC(C)C)NC(=O)CN)[C@@H](C)O)C(C)C)C(=O)N[C@@H](CC(C)C)C(=O)N[C@@H](CC(C)C)C(=O)N[C@@H](CC(=O)O)C(=O)N[C@@H](CC(C)C)C(=O)N[C@@H](Cc1ccc(O)cc1)C(=O)N[C@@H](CC(C)C)C(=O)N[C@@H](CC(=O)O)C(=O)N[C@@H](C)C(=O)N1CCC[C@H]1C(=O)NCC(=O)N[C@H](C(=O)N[C@@H](CSCC(=O)Nc1ccc2c(c1)C(=O)OC21c2ccc(O)cc2Oc2cc(O)ccc21)C(N)=O)C(C)C
In turn, B5 gave a Kd with HisKIX [1] of 3.1 µM. Further, in the assay with HisKIX [2], the “fold enhancement in affinity over KID-AB^U” value was at least 37 fold, the “fold enhancement in affinity over KID-B^U” value is at least 96 fold and the “fold enhancement in affinity over peptide C^U” value was in the range of 7 to 14 fold.

B6: PPKID5^U (designed binder)
peptide: GLSWPTYHGDDAPVRRLSFFYILLDLYLDAPGVC(Fluorescein(5-NHCOCH2))-NH2
modifications: N-terminus assumed
SMILES: CC[C@H](C)[C@H](NC(=O)[C@H](Cc1ccc(O)cc1)NC(=O)[C@H](Cc1ccccc1)NC(=O)[C@H](Cc1ccccc1)NC(=O)[C@H](CO)NC(=O)[C@H](CC(C)C)NC(=O)[C@H](CCCNC(=N)N)NC(=O)[C@H](CCCNC(=N)N)NC(=O)[C@@H](NC(=O)[C@@H]1CCCN1C(=O)[C@H](C)NC(=O)[C@H](CC(=O)O)NC(=O)[C@H](CC(=O)O)NC(=O)CNC(=O)[C@H](Cc1c[nH]cn1)NC(=O)[C@H](Cc1ccc(O)cc1)NC(=O)[C@@H](NC(=O)[C@@H]1CCCN1C(=O)[C@H](Cc1c[nH]c2ccccc12)NC(=O)[C@H](CO)NC(=O)[C@H](CC(C)C)NC(=O)CN)[C@@H](C)O)C(C)C)C(=O)N[C@@H](CC(C)C)C(=O)N[C@@H](CC(C)C)C(=O)N[C@@H](CC(=O)O)C(=O)N[C@@H](CC(C)C)C(=O)N[C@@H](Cc1ccc(O)cc1)C(=O)N[C@@H](CC(C)C)C(=O)N[C@@H](CC(=O)O)C(=O)N[C@@H](C)C(=O)N1CCC[C@H]1C(=O)NCC(=O)N[C@H](C(=O)N[C@@H](CSCC(=O)Nc1ccc2c(c1)C(=O)OC21c2ccc(O)cc2Oc2cc(O)ccc21)C(N)=O)C(C)C
notes: also called PPKID5 (unphosphorylated)
For the molecule B6, the Kd with HisKIX [1] worked out at 6.6 µM.

The molecule GLSPYTEWGDDAPVRRLSFFYILLDLYLDAPGVC(acetamidofluorescein)-NH2 (designed binder) [PPKID7^U] showed a Kd with HisKIX [1] of 2.3 µM.

Consider H-GASPHTSSGDDAPVRRL[pS]FFDILLDLYLDAPGVC(Fluorescein(5-NHCOCH2))-NH2 (designed binder, not fully specified, also called PPKID3 (phosphorylated)) [PPKID3^P], for which the Kd with HisKIX [1] was determined as 1.2 µM. Besides, in the assay with HisKIX [2], the “fold enhancement in affinity upon phosphorylation” value lay within 6 to 41 fold, the “fold higher affinity than KID-B^P” value lay within 43 to 87 fold and the ΔΔG upon phosphorylation is -1 kcal/mol.

In the assay with HisKIX [1], GASPHTSSGDDAPVRRLSFFDILLDLYLDAPGVC(acetamidofluorescein)-NH2 (designed binder, not fully specified, also called PPKID3 (unphosphorylated)) [PPKID3^U] showed a Kd of 6.7 µM. Moreover, in the assay with HisKIX [2], the “fold change in affinity against peptide C^U” value lay within 1 to 3 fold and the “ΔΔG relative to peptide C^U” value was -0.7 kcal/mol.

H-GMSRVTPGGDDAPVRRL[pS]FFYILRDLYLDAPGVC(Fluorescein(5-NHCOCH2))-NH2 (designed binder, not fully specified, also called PPKID2 (phosphorylated)) [PPKID2^P] displayed a Kd with HisKIX [1] of 0.729 µM.

As to GMSRVTPGGDDAPVRRLSFFYILRDLYLDAPGVC(acetamidofluorescein)-NH2 (designed binder, not fully specified, also called PPKID2 (unphosphorylated)) [PPKID2^U], in the assay with HisKIX [1], the Kd came to 12.6 µM.
